Reference: patent US20200325187A1 (Genentech, published 2020)
Where two headings read alike, the source gives them in different places.

Key:
hVEGF-A (8-109) [1] = target: T1, hVEGF-A (8-109) (human, UniProt P15692 214-315); assay: spot phage ELISA
T1 sequence (looked up): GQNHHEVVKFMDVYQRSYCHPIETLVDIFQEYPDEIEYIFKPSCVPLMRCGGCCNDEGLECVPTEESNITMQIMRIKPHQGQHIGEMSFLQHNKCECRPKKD
Outline: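 Phage clones from four selection rounds were grown overnight at 37 °C with M13-KO7 helper phage. Bound phage was detected with anti-M13-HRP and TMB, with binding to BSA alone run in parallel as background.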

hVEGF-A [2] = target: T2, hVEGF-A (human, UniProt P15692-4 27-191, limits assumed); assay: cell-based or functional assay
hVEGF-A Y21A = target: T3, hVEGF-A Y21A (human, UniProt P15692-4 34-135, Y21A); assay: SPR
T3 construct: position probably counted on the mature protein
T3 sequence (looked up): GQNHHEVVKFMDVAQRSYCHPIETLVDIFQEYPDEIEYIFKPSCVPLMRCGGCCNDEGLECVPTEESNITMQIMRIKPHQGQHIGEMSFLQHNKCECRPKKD
Protocol: (§1) Depending on the format of the assay either a streptavidin sensor (SA) or a dextran-coated (CM5) sensor was utilized as described below.
(§2) Reaction was then quenched by addition of 10 molar excess of Glycine pH 8.0 and the sample was buffer exchanged into PBS using an Amicon 0.5 mL 3000 MWCO ultra-centrifugal filters (EMD Millipore). The biotinylation state of the protein was verified by LC-MS analysis. Biotinylated VEGF-A was then captured on the surface until a resonance unit (RU) signal of about ˜400. For immobilization of VEGF-A on CM5 sensor, the surface was first activated with a mixture of N-ethyl-N′-(3-dimethylaminopropyl)carbodiimide hydrochloride and N-hydroxysuccinimide (EDC/NHS) according to the supplier instructions. VEGF-A was then diluted into coupling buffer (0.1 M Acetate Buffer, pH 5.0) and injected until the signal reached about ˜400 RU followed by a wash with 1 M ethanolamine pH 8.0 to quench remaining activated sites.

hVEGF-A Q89A = target: T4, hVEGF-A Q89A (human, UniProt P15692-4 34-135, Q89A); assay: SPR
T4 construct: position probably counted on the mature protein
T4 sequence (looked up): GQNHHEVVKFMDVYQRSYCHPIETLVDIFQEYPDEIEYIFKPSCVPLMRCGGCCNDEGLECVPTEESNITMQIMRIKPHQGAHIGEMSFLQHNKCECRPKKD
Protocol: as §1, §2

hVEGF-A [3] = target: T2, hVEGF-A; assay: SPR
Protocol: as §1, §2

hVEGF-A K48A = target: T5, hVEGF-A K48A (human, UniProt P15692-4 34-135, K48A); assay: SPR
T5 construct: position probably counted on the mature protein
T5 sequence (looked up): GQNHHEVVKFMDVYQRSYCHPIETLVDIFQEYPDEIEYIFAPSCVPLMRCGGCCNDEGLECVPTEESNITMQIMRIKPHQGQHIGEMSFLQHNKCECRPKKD
Protocol: as §1, §2

hVEGF-A [4] = target: T2, hVEGF-A; assay: KDR-VEGF competition ELISA
hVEGF-A [5] = target: T2, hVEGF-A; assay: cell-based or functional assay; remark: listed apart in the source
rabbit VEGF-A = target: T6, rabbit VEGF-A (rabbit, UniProt G1T1L9 1-398); assay: SPR
T6 sequence: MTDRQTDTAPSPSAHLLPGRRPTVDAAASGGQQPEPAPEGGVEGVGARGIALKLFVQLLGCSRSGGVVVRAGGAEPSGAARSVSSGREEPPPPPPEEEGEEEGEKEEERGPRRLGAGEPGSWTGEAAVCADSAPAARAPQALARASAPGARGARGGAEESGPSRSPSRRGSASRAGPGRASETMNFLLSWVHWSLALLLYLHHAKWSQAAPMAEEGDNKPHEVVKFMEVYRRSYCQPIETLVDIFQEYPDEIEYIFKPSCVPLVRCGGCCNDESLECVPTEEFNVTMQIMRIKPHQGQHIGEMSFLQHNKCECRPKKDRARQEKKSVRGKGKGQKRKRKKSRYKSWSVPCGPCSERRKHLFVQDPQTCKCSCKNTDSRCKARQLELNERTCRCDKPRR
Protocol: as §1, §2

mouse VEGF-A 164 = target: T7, mouse VEGF-A 164 (mouse, UniProt Q00731-2 27-190); assay: SPR
T7 construct: also called mouse 164
T7 sequence (looked up): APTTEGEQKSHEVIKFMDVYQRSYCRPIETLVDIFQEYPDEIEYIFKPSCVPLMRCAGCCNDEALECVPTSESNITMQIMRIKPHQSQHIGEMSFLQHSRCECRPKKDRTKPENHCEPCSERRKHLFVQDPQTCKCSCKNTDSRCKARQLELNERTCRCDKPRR
Protocol: as §1, §2

human VEGF-A 165 = human VEGF-A 165 (human, UniProt P15692-4 27-191); assay: SPR
Protocol: as §1, §2

hVEGF-A (8-109) [6] = target: T1, hVEGF-A (8-109); assay: SPR
Protocol: as §1, §2

rat VEGF-A = target: T8, rat VEGF-A (rat, UniProt P16612-2 27-190, limits assumed); assay: SPR
T8 construct: also called rVEGF
T8 sequence (looked up): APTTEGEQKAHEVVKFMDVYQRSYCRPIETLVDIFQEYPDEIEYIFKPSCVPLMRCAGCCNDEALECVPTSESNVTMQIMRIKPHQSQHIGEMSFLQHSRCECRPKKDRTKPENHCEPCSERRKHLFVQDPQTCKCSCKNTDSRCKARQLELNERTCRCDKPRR
Protocol: as §1, §2

LRP6 [7] = target: T9, LRP6 (human, UniProt O75581 20-1613); assay: cell-based or functional assay
LRP6 E1E2 protein = target: T10, LRP6 E1E2 protein (human, UniProt O75581 20-630, limits assumed); assay: spot phage ELISA
T10 construct: domain: E1E2
T10 sequence (looked up): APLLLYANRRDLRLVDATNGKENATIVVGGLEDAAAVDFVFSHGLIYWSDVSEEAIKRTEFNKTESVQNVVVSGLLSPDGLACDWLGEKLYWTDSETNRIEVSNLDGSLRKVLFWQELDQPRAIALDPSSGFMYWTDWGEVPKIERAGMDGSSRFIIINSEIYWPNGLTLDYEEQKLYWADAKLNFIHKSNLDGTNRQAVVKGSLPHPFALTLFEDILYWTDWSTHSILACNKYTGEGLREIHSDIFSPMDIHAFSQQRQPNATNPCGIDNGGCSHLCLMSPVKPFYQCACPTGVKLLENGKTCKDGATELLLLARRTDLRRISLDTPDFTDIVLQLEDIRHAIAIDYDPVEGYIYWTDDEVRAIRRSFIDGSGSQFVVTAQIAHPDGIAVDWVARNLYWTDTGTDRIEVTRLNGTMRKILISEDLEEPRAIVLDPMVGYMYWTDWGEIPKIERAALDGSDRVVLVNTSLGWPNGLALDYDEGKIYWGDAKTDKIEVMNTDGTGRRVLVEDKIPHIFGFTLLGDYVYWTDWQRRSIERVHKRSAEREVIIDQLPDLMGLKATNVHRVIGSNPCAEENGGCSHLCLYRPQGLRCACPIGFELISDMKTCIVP

LRP6 [8] = target: T9, LRP6; assay: cell-based or functional assay; remark: listed apart in the source

human VEGF-A 165, sequence (P15692 other isoform, or with tags, fused parts or gaps limits assumed): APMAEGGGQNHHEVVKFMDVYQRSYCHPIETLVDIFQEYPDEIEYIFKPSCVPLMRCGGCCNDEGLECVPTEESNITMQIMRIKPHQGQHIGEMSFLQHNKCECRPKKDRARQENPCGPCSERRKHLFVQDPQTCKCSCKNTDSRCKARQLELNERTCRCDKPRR

GCDVMQPYWGCGPDIDCLAGCVCHWYNSCG (designed binder, also called L2.9.63.12) [VEGF_CKP9.63.12]
ELISA (hVEGF-A (8-109) [1]): 2.6
S/N vs BSA (hVEGF-A (8-109) [1]): 39.9
Cellular IC50 (hVEGF-A [2]): 1.83 nM
Kd (hVEGF-A Y21A): 9.84 nM
Kd (hVEGF-A Q89A): 36.5 nM
Kd (hVEGF-A [3]): 1.07 nM
Kd (hVEGF-A K48A): 0.33 nM
IC50 (hVEGF-A [4]): 0.7 nM
Cellular IC50 (hVEGF-A [5]): 1.83 nM
FOLD [..] [..] TO VARIANT 9.54.90 (hVEGF-A [5]): 0.74 fold
Kd (rabbit VEGF-A): 2.54 nM
Kd (mouse VEGF-A 164): 13.1 nM
Kd (human VEGF-A 165): 4.32 nM
Kd (hVEGF-A (8-109) [6]): 3.2 nM
Kd (rat VEGF-A): 5.74 nM

GCSNRVKVRACKQDSDCLAGCVCGPNGFCG (designed binder) [LRP6_CKP19]
Best Fit IC50 (nM) for Wnt3a (25 ng/well), luciferase reporter, fraction F1 (LRP6 [7]): 59300 nM
Best Fit IC50 (nM) for Wnt3a (25 ng/well), luciferase reporter, fraction F2 (LRP6 [7]): 69800 nM
ELISA (LRP6 E1E2 protein): 3.27
S/N vs BSA (LRP6 E1E2 protein): 42
Best Fit IC50 (nM) for Wnt1 (5 ng/well), luciferase reporter, fraction F1 (LRP6 [8]): 23100 nM
Best Fit IC50 (nM) for Wnt1 (5 ng/well), luciferase reporter, fraction F2 (LRP6 [8]): 49300 nM

GCRNSIKRCKQNSDCLAGCVCSVGHGCG (designed binder) [LRP6_CKP6]
Best Fit IC50 (nM) for Wnt3a (25 ng/well), luciferase reporter, fraction F1 (LRP6 [7]): 350000 nM
Best Fit IC50 (nM) for Wnt3a (25 ng/well), luciferase reporter, fraction F2 (LRP6 [7]): 276000 nM
ELISA (LRP6 E1E2 protein): 3.1
S/N vs BSA (LRP6 E1E2 protein): 37.4
Best Fit IC50 (nM) for Wnt1 (5 ng/well), luciferase reporter, fraction F1 (LRP6 [8]): 22900 nM
Best Fit IC50 (nM) for Wnt1 (5 ng/well), luciferase reporter, fraction F2 (LRP6 [8]): 23800 nM
Best Fit IC50 (nM) for Wnt1 (5 ng/well), luciferase reporter, fraction F3 (LRP6 [8]): 4620 nM
